The results in this text go back to patent US20220402983A1 (Janssen / Centocor, published 2022).

The labels stand for the following.
B1: Compound No. 59 (peptide)
peptide: Ac-[dR][Pen]QTWQ[Pen][AEF][2Nal][Thp]K(Hexanoyl)NF-NH2
modifications: disulfide 2-7
SMILES: CCCCCC(=O)NCCCC[C@H](NC(=O)C1(NC(=O)[C@H](Cc2ccc3ccccc3c2)NC(=O)[C@H](Cc2ccc(OCCN)cc2)NC(=O)[C@H]2NC(=O)[C@H](CCC(N)=O)NC(=O)[C@H](Cc3c[nH]c4ccccc34)NC(=O)[C@H]([C@@H](C)O)NC(=O)[C@H](CCC(N)=O)NC(=O)[C@@H](NC(=O)[C@@H](CCCNC(=N)N)NC(C)=O)C(C)(C)SSC2(C)C)CCOCC1)C(=O)N[C@@H](CC(N)=O)C(=O)N[C@@H](Cc1ccccc1)C(N)=O
B2: Compound No. 60 (peptide)
peptide: Ac-[dR][Pen]QTWQ[Pen][AEF][2Nal][Thp]K(Tfa)NF-NH2
modifications: disulfide 2-7
SMILES: CC(=O)N[C@H](CCCNC(=N)N)C(=O)N[C@@H]1C(=O)N[C@@H](CCC(N)=O)C(=O)N[C@@H]([C@@H](C)O)C(=O)N[C@@H](Cc2c[nH]c3ccccc23)C(=O)N[C@@H](CCC(N)=O)C(=O)N[C@H](C(=O)N[C@@H](Cc2ccc(OCCN)cc2)C(=O)N[C@@H](Cc2ccc3ccccc3c2)C(=O)NC2(C(=O)N[C@@H](CCCCNC(=O)C(F)(F)F)C(=O)N[C@@H](CC(N)=O)C(=O)N[C@@H](Cc3ccccc3)C(N)=O)CCOCC2)C(C)(C)SSC1(C)C
B3: Compound No. 62 (peptide)
peptide: Ac-[Pen]NT[Trp(7-Ph)]K(Ac)[Pen][AEF][3Quin][Thp]EN[Aib]-NH2
modifications: disulfide 1-6; reading uncertain
B4: Compound No. 58 (peptide)
peptide: Ac-[dR][Pen]QTWQ[Pen][AEF][2Nal][Thp]K(Butyryl)NF-NH2
modifications: disulfide 2-7
SMILES: CCCC(=O)NCCCC[C@H](NC(=O)C1(NC(=O)[C@H](Cc2ccc3ccccc3c2)NC(=O)[C@H](Cc2ccc(OCCN)cc2)NC(=O)[C@H]2NC(=O)[C@H](CCC(N)=O)NC(=O)[C@H](Cc3c[nH]c4ccccc34)NC(=O)[C@H]([C@@H](C)O)NC(=O)[C@H](CCC(N)=O)NC(=O)[C@@H](NC(=O)[C@@H](CCCNC(=N)N)NC(C)=O)C(C)(C)SSC2(C)C)CCOCC1)C(=O)N[C@@H](CC(N)=O)C(=O)N[C@@H](Cc1ccccc1)C(N)=O
B5: Compound No. 61 (peptide)
peptide: Ac-[dR][Pen]QTWQ[Pen][AEF][2Nal][Thp]K(Isobutyryl)NF-NH2
modifications: disulfide 2-7
SMILES: CC(=O)N[C@H](CCCNC(=N)N)C(=O)N[C@@H]1C(=O)N[C@@H](CCC(N)=O)C(=O)N[C@@H]([C@@H](C)O)C(=O)N[C@@H](Cc2c[nH]c3ccccc23)C(=O)N[C@@H](CCC(N)=O)C(=O)N[C@H](C(=O)N[C@@H](Cc2ccc(OCCN)cc2)C(=O)N[C@@H](Cc2ccc3ccccc3c2)C(=O)NC2(C(=O)N[C@@H](CCCCNC(=O)C(C)C)C(=O)N[C@@H](CC(N)=O)C(=O)N[C@@H](Cc3ccccc3)C(N)=O)CCOCC2)C(C)(C)SSC1(C)C
B6: Compound No. 63 (peptide)
peptide: Ac-[Pen]NT[Trp(7-Ph)]K(Ac)[Pen][AEF][3Quin][αMeK]K(Ac)N[Aib]-NH2
modifications: disulfide 1-6; reading uncertain
B7: Compound No. 67 (peptide)
peptide: Ac-[Abu]QT[Trp(7-Ph)]K(Ac)C[AEF][2Nal][αMeK]K(Ac)N[αMeF]-NH2
modifications: thioether 1-6

Bridges are numbered along the chain shown (N, C = ends). [ ]: non-standard residue; d: D form. The star is where a group is joined. Trp(7-Ph) = N[C@@H](Cc1c[nH]c2c(-c3ccccc3)cccc12)C(=O)O; 2Nal = N[C@@H](Cc1ccc2ccccc2c1)C(=O)O; AEF = NCCOc1ccc(C[C@H](N)C(=O)O)cc1; αMeF = C[C@](N)(Cc1ccccc1)C(=O)O; Pen = CC(C)(S)[C@H](N)C(=O)O; αMeK = C[C@](N)(CCCCN)C(=O)O; 3Quin = not defined here; Isobutyryl = CC(C)C(=O)*; Thp = NC1(C(=O)O)CCOCC1; Abu = CC[C@H](N)C(=O)O; Hexanoyl = CCCCCC(=O)*; Aib = CC(C)(N)C(=O)O; Tfa = O=C(C(F)(F)F)*; Butyryl = CCCC(=O)*

The target in the assay is T1, human IL-23R (interleukin-23 receptor) (human, UniProt Q5VWK5 24-629).
T1 sequence (looked up): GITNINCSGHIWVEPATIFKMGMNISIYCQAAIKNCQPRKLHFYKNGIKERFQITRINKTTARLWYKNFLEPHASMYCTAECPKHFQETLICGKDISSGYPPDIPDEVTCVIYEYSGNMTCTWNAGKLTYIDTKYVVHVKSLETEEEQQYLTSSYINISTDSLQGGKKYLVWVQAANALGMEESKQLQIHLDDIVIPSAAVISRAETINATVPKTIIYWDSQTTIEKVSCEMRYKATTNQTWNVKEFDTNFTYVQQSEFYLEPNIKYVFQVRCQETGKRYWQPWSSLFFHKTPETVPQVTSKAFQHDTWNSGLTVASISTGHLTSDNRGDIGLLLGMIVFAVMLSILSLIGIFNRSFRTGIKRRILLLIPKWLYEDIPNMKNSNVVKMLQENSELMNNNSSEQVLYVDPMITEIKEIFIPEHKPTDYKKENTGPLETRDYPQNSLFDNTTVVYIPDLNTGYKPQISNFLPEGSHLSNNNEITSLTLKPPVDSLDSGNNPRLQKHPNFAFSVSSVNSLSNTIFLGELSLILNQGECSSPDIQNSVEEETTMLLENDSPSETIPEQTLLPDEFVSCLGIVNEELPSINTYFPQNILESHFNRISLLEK
Description: cell-based or functional assay.
As to B1, the “PBMC pSTAT3 IC50 (nM)” value was 67 nM.
In the case of B2, the “PBMC pSTAT3 IC50 (nM)” value turned out to be 44 nM.
As to B3, the “pStat3 HTRF (nM), IC50, DB cells IL23R pSTAT3 cell assay” value was found to be 0.413 nM.
With B4, the “PBMC pSTAT3 IC50 (nM)” value stood at 35 nM.
Turning to B5, the “PBMC pSTAT3 IC50 (nM)” value was determined as 70 nM.
On to B6, for which the “pStat3 HTRF (nM), IC50, DB cells IL23R pSTAT3 cell assay” value came to 1.02 nM.
The same measure, in the same setting: in the case of B7 it was 5.52 nM.
